B1: Rho GTPase-activating protein 21 (Homo sapiens), Q5T5U3 (parent)
chain: MMATRRTGLSEGDGDKLKACEVSKNKDGKEQSETVSLSEDETFSWPGPKTVTLKRTSQGFGFTLRHFIVYPPESAIQFSYKDEENGNRGGKQRNRLEPMDTIFVKQVKEGGPAFEAGLCTGDRIIKVNGESVIGKTYSQVIALIQNSDTTLELSVMPKDEDILQVLQFTKDVTALAYSQDAYLKGNEAYSGNARNIPEPPPICYPWLPSAPSAMAQPVEISPPDSSLSKQQTSTPVLTQPGRAYRMEIQVPPSPTDVAKSNTAVCVCNESVRTVIVPSEKVVDLLSNRNNHTGPSHRTEEVRYGVSEQTSLKTVSRTTSPPLSIPTTHLIHQPAGSRSLEPSGILLKSGNYSGHSDGISSSRSQAVEAPSVSVNHYSPNSHQHIDWKNYKTYKEYIDNRRLHIGCRTIQERLDSLRAASQSTTDYNQVVPNRTTLQGRRRSTSHDRVPQSVQIRQRSVSQERLEDSVLMKYCPRSASQGALTSPSVSFSNHRTRSWDYIEGQDETLENVNSGTPIPDSNGEKKQTYKWSGFTEQDDRRGICERPRQQEIHKSFRGSNFTVAPSVVNSDNRRMSGRGVGSVSQFKKIPPDLKTLQSNRNFQTTCGMSLPRGISQDRSPLVKVRSNSLKAPSTHVTKPSFSQKSFVSIKDQRPVNHLHQNSLLNQQTWVRTDSAPDQQVETGKSPSLSGASAKPAPQSSENAGTSDLELPVSQRNQDLSLQEAETEQSDTLDNKEAVILREKPPSGRQTPQPLRHQSYILAVNDQETGSDTTCWLPNDARREVHIKRMEERKASSTSPPGDSLASIPFIDEPTSPSIDHDIAHIPASAVISASTSQVPSIATVPPCLTTSAPLIRRQLSHDHESVGPPSLDAQPNSKTERSKSYDEGLDDYREDAKLSFKHVSSLKGIKIADSQKSSEDSGSRKDSSSEVFSDAAKEGWLHFRPLVTDKGKRVGGSIRPWKQMYVVLRGHSLYLYKDKREQTTPSEEEQPISVNACLIDISYSETKRKNVFRLTTSDCECLFQAEDRDDMLAWIKTIQESSNLNEEDTGVTNRDLISRRIKEYNNLMSKAEQLPKTPRQSLSIRQTLLGAKSEPKTQSPHSPKEESERKLLSKDDTSPPKDKGTWRKGIPSIMRKTFEKKPTATGTFGVRLDDCPPAHTNRYIPLIVDICCKLVEERGLEYTGIYRVPGNNAAISSMQEELNKGMADIDIQDDKWRDLNVISSLLKSFFRKLPEPLFTNDKYADFIEANRKEDPLDRLKTLKRLIHDLPEHHYETLKFLSAHLKTVAENSEKNKMEPRNLAIVFGPTLVRTSEDNMTHMVTHMPDQYKIVETLIQHHDWFFTEEGAEEPLTTVQEESTVDSQPVPNIDHLLTNIGRTGVSPGDVSDSATSDSTKSKGSWGSGKDQYSRELLVSSIFAAASRKRKKPKEKAQPSSSEDELDNVFFKKENVEQCHNDTKEESKKESETLGRKQKIIIAKENSTRKDPSTTKDEKISLGKESTPSEEPSPPHNSKHNKSPTLSCRFAILKESPRSLLAQKSSHLEETGSDSGTLLSTSSQASLARFSMKKSTSPETKHSEFLANVSTITSDYSTTSSATYLTSLDSSRLSPEVQSVAESKGDEADDERSELISEGRPVETDSESEFPVFPTALTSERLFRGKLQEVTKSSRRNSEGSELSCTEGSLTSSLDSRRQLFSSHKLIECDTLSRKKSARFKSDSGSLGDAKNEKEAPSLTKVFDVMKKGKSTGSLLTPTRGESEKQEPTWKTKIADRLKLRPRAPADDMFGVGNHKVNAETAKRKSIRRRHTLGGHRDATEISVLNFWKVHEQSGERESELSAVNRLKPKCSAQDLSISDWLARERLRTSTSDLSRGEIGDPQTENPSTREIATTDTPLSLHCNTGSSSSTLASTNRPLLSIPPQSPDQINGESFQNVSKNASSAANAQPHKLSETPGSKAEFHPCL

This is an account of results in IntAct's records for PubMed 17347647.

The variants in the first test derive from B1. The following applies: with arf1_mouse Arf1, P84078.
Sequence of arf1_mouse Arf1, P84078 (P84078 whole entry): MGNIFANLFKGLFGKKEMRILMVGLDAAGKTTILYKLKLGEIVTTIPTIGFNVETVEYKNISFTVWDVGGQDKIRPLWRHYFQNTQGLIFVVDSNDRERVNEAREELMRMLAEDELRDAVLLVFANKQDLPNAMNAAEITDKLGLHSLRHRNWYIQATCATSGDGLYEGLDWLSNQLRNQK
Y1000A: the “effect of a mutation on the interaction” value is “decreasing interaction”.

In another test the parent is B1. The note with it: with arf1_mouse Arf1, P84078. This is another data set of the same source.
For the variant I1054A, the “effect of a mutation on the interaction” value is given as “decreasing interaction”.
